# Results reported in the DeepSol protein solubility set.
# Assay: soluble on expression in E. coli; label from the status in PepcDB or PDB records
row,Sequence,soluble on expression in E. coli
1,NGFQKEIRGQLLNVAPHAEIGYIDNTDTDWRNLLRFTENRKGILAAAPYVSNQALLANAGEIRGVQMRGILPSEERKVVEYGDKMPAGKFEDLIPGEFDIILGVGLAEALGAEVGNKVTVITPEGNVTPAGVVPRLKQFTVVGLVKTGVYEVDNSLAMTHIQDARVLYRLDKEVAGLRLKLADPQNAPALTATLIPEAQRDAVWVRDWTYSNRSYFEAVELEKR,soluble
2,MSLESLAAKVVERLNRAESAAELRFCHDELARELRRCLAPEQMKQLAGDVVCVHEAILRRAFFLAERETMKRSVGIRPPAWCWYVMGSIGRCEPTIWTDQDHGILFNCPEEEEAACYEFIRHMAAVGVDMLHEAGYPYCSGYVMATNKRWAQSVRGWEQQLSSYLDSGWPNDIRFLLIAMDMRPLYGEAELAEKARKALFAAVAKRPPLLARMGEHVQFPPVPLGWLGNVQTERWGPYSGAVHMKQSGYVQLTNALKWLACFAHVPTAGTAERRRALEANGVLTAPLSDAVCEALSVYYSIRLKYSTEAGDGREYVLWRALERTEQKQLKQAMRTAKRLQRFVARRVANIHAEGHHHHHH,soluble
3,AIADELNSPLGERAQGASLAHVVWSDPQWLERYPLTFENVLTYFSRSPFYDPTCNNELVRMQMHPELQGEMLYYTQREEELLLGMQGVEYVPLCSSDAHELFIIRKQVRRSADEVHVTNLYYILYGQVYEAPAFSTVLLVRLRQSADFLVRSLGLLRQWLSKKEYGEPGATGHGHEDTLLLQLLRKAQQRNRQL,soluble
4,MSLDWTCKHHADLTLKELYALLQLRTEVFVVEQKCPYQEVDGLDLVGDTHHLMAWRDGQLLAYLRLLDPVRHEGQVVIGRVVSSSAARGQGLGHQLMERALQAAERLWLDTPVYLSAQAHLQAYYGRYGFVAVTEVYLEDDIPHIGMRRA,soluble
5,MALLGPKEQEIVRERLANLTRDVEMVLFTDSSTLIAPGKEPCLYCKETKQLLEELSALSDKLHLVVYDLATPEGREKAGAYKVEAAPTLILREKGSEAINLRYRGIPAGYEFASLLEDIEMLGRDGHGLPENVVQELNDLPEEVVLQVFVTPTCPYCPQAVRTAHRLAYASPKVWGEMIEANEFPALSDRYRIHGVPDTIINHGKERVLGAQPLSQFLQAIRKAVGVRA,soluble
6,MSLRAALADLHASIVSARKAPFSDRPIEGSLERCLAALAPLCRRARITRLGDLTGLDRLGLPVMQAVRPAALSEVTSLGRGLSRAEAAVGALMESLERYFAEAIPAERTFLATADQLEVTDGLFENLVVPEWRGKWRQRTIAWIEGIDVVGGSAYPVPLELVHTRYSEPQPAHDGAFLRTTTGLACHTSRHGAFLHGLWECLERDAIARAFGTHGFFDRWRIAPCGLGDGVDHIRSLAGARGISFALWLAPSPAAVPVVWCQTVEAGHGEPILALPTEGYAAGPSIEMAAASAMLEALSARAGAISGARDDQTREHYRRSTDAAVAKARELVLADAASKPGEATYATIPDPGTLLDRVVEAGLGPVLAIPVGVDEEAGVHCVRTVLPGASPFFVLREGHHHHHH,not soluble
7,MGSDKIHHHHHHMNILNIYNEFDINNFDLSVDHYGSEKCDRGYSFGPTIRDNYVIHFILEGKGKLTINQHTLDLAAGDIFLLPKDISTFYQADLQMPWSYIWIGFSGSKAENILKQSSLFKRFYCHSGRSSKLFSQMMTIIQFANTPLTSVNELLMVGELYKLLAALIEEFPLSHLEESNSSTKAYVNQVKKIIHSQYGSSLRVNDIAKKLNLSRSYLYKIFRKSTNLSIKEYILQVRMKRSQYLLENPKLSIAEISNSVGFSDSLAFSKAFKNYFGKSPSKFRKEIQNN,not soluble
8,MGSDKIHHHHHHMIVNQANLQGIYKSFNTIFNQAFDAAPSQWPLVAMQVPSTGRSVDYKWLGDFPMMREWLGDRVLKDLSAFKYEITNKDYESTIEVDRNDIDDDQIGVYTPMIQGLAQAAKVHPDILVFALLKAGFDTGCFDGQYFFDSDHSVNGASVSNTGGGDGTPWYLLDLSRPIKPIVLQIRKRPQFVAMDKPDDENVFMRKKFRYGVDDRKNVGYGLWQLAYGSKQTLDATNYAAARAAMMAFTNDEGVPLGITPTHLVVPPTLESNGRTVVEAQFDANGASNVWYNTAKLVVVPWLA,not soluble
9,MKTKTDFLKMKEQGEPITMLTAYDYPSAKLAEEAEVDMILVGDSLGMVVLGYDSTVPVTVEDMIHHTKAVRRGAKETFIVTDMPFMSYHVSLQDTMVNARRIVQESGAHALKVEGAGEVISTIHYLTNAGIPVVAHLGLTPQSVGVLGGYKVQGKDAESAKKLIEDAKKCEEAGAIALVLECVPMQLAELISEQLTIPTIGIGAGQKVDGQVLVYHDLISYGVNRVPKFVKQYTSVQEEIVRGISQYVAEVKTRQFPEEKHSFTMKEEECLALYGGKQS,not soluble
10,MIRRRHSTTRIDRRPDGLTIYYKRANDDMEEEMLRVSVKPEGKNINDSLRSSKSSSSPPSRNSSLNLKTLKKDRKSKEGKPKSSSKHGKRMTSRAIHVSKKWSQFNRREDKTDYLDDETMQILEDLKILNCKIRKRFQIGTTCPHSLAKTDILSSSQSSKSQKSSTTTSSPVLTAVAYDYRGIPLTAPTVFPGARSEKTRETTRKAARAFARMEKEREDANNSSSRSRKTYQSRSPTGSEDSSPVIKLTRVSSGTRFPGASSPGTRERSRLMLKQCAMKKQLDEIARSLKSSKKSRKSMKSKKEKKSKPASLKTIYSKM,not soluble
11,MDSLEKIKEEVISCKKCKLWQFRTNAVPGEGYPKAEIMFVGEAPGENEDKEGRPFVGAAGKLLTQMIKEILGLERDQVFITNVVKCRPPNNRDPEEDEITACSPYLDRQIDIIMPKIIVTLGRHSTKYIFSKMGENFSSITKVRGKSYVWKYKEKEIIVFPTYHPAAALYNPNLRKILEEDFKKIRELAITPKRYTIDYFLGGKNRSWDKREKSDSNSGK,soluble
12,MPIVMARDLEETASSSEDEEVISQEDHPCIMWTGGCRRIPVLVFHADAILTKDNNIRVIGERYHLSYKIVRTDSRLVRSILTAHGFHEVHPSSTDYNLMWTGSHLKPFLLRTLSEAQKVNHFPRSYELTRKDRLYKNIIRMQHTHGFKAFHILPQTFLLPAEYAEFCNSYSKDRGPWIVKPVASSRGRGVYLINNPNQISLEDNILVSRYINNPLLIDDFKFDMRLYVLVTSYDPLVIYLYEEGLARKCNWKMGNTMDKRRLPIYVQVL,not soluble
13,SHPNQNDKIVVGLDIGTTKICAIVGRKNEYGKLEILGIGKAVSEGVIRGMVTNINLTVTAIEKAIKEASDQSGIDIGVVNVGIAGQHIKSSVHHHGINRPGGDEEISVDDVNRLTADMYRTVMPFGN,not soluble
14,MGSDKIHHHHHHMLSRQGEYKSWEITEAVLPVASNQEEAKNILTDTNVATITKFYGRYQDFMEMPAPAEKVAEYLNAHALWFSRCAEPMKVQLLGENGYALVIGRFGAFGYEVEPKIGLELLPPEEGIYRIRTIPIPDYQSPGYDVDYRASLQLIENDACSSGEVTRVEWELDLIVDLHFPRFIQRLPKSIIQSTGDRLLNQIVRQVSRRLTRKVQQDFQKSLEIPFSGNSKQKR,not soluble
15,MKSIISLMAACAIGAASFAAPAFAQDKGSVGIAMPTKSSARWIDDGNNIVKQLQEAGYKTDLQYADDDIPNQLSQIENMVTKGVKVLVIASIDGTTLSDVLKQAGEQGIKVIAYDRLIRNSGDVSYYATFDNFQVGVLQATSITDKLGLKDGKGPFNIELFGGSPDDNNAFFFYDGAMSVLKPYIDSGKLVVKSGQMGMDKVGTLRWDPATAQARMDNLLSAYYTDAKVDAVLSPYDGLSIGIISSLKGVGYGTKDQPLPVVSGQDAEVPSVKSIIAGEQYSTIFKDTRELAKVTVNMVNAVMEGKEPEVNDTKTYENGVKVVPSYLLKPVAVTKENYKQVLVDGGYYKEDQLK,not soluble
16,MGSDKIHHHHHHMTSQKYQSKTLKIAVVGDIHDQWEVEDGMALKHLGVDLVLFVGDFGNESVEVVRAIASLNIPKAAVMGNHDAWYTATEWGRKKCPYDRTKEDWVQEQLDLLGSAHVGYGKLDFPEWNLTVVGGRPFSWGGHEWRFADICKDRYGVTTLEESAQRIFASVKSAACETIIFLGHNGPSGLGDRPEDPCGKDWHPIGGDFGDPDLAEAISLTMTTGKQIALVTFGHMHHSLRHTKKELRKPIFKSPEGIVYLNAASVPRIVEGESGKLRNFSLVSLEAGEVTQASLIWVGEDFQVAKEEIFYERSTSVVPSV,not soluble
